Assay results published in paper PMC12737490, “Beta Toxins Isolated from the Scorpion Centruroides hirsutipalpus (Scorpiones; Buthidae) Affect the Function of Sodium Channels of Mammals” (Toxins, 2025).

B1: Chirp9 (peptide)
chain: KEGYIVDYHTGCKYTCAKLGDNDYCVRECRLRYYQSAHGYCYAFACWCTHLYEAAVVWPLPNKRCK-NH2
modifications: disulfide (positions not given here); also: four disulfide bridges, pairing not given here
B2: Chirp7 (peptide)
chain: KEGYLVNHSTGCKYECFKLGDNDYCLRECRQQYGKGAGGYCYAFGCWCTHLYEQAVVWPLPKKTCN-NH2
modifications: disulfide (positions not given here); also: four disulfide bridges, pairing not given here

Assays:
[1] = tested on: CD1 strain albino mice; assay: Toxicity and lethality tests in mice (intraperitoneal); type: in vivo, Mus musculus; parameters: key to Toxicity: Non-toxic: “non-toxic” when the mice exhibited normal physiological and behavioral patterns indistinguishable from the control group; Toxic: “toxic” when the animals developed signs of intoxication, such as excitability, excessive salivation, transient paralysis, breathing difficulty, diarrhea, impaired coordination or movement, or excessive tearing. These symptoms would appear after administration but fully resolve within 24 h without lasting effects; Lethal: “lethal” when the mice showed severe manifestations of intoxication, including progressive paralysis, marked respiratory distress, convulsions, or complete loss of mobility, leading to death during the observation period as a direct consequence of exposure; conditions: 20 g CD1 mice; for symptoms in affected animals / time to death after injection / lethality in murine models: 30 µg in 100 µL PBS; for lethality in murine models / Toxicity: monitored 24 h, in triplicate; for Toxicity: 30 µg of each fraction in 100 µL PBS
Description: Toxicity assays. Toxicity and lethality tests of FPLC and HPLC fractions containing the toxins were conducted on CD1 strain albino mice (Mus musculus) weighing 20 g. The mice received intraperitoneal injections of 30 µg of each fraction diluted in 100 µL of Phosphate-buffered saline (PBS), while control mice were injected with sterile water. The mice were monitored for 24 h. […] A treatment was categorized as “toxic” when the animals developed signs of intoxication, such as excitability, excessive salivation, transient paralysis, breathing difficulty, diarrhea, impaired coordination or movement, or excessive tearing. These symptoms would appear after administration but fully resolve within 24 h without lasting effects. […] The experiments were conducted in triplicate. The Bioethics Committee approved the Animal Welfare protocol used in this study (Project 413).

[2] = tested on: hNav 1.1; assay: Patch-clamp macroscopic sodium currents, hNav1.1 in HEK cells; type: cell-based, human; conditions: 200 nM toxin, mean ± SE of 5 cells (3–5 cells); for I/Imax (residual peak current): Chirp9 value marked * (p<0.05 paired t-test); for slope of activation after toxin: control 7.7 ± 0.7 (Chirp7 cells), 7.2 ± 0.3 (Chirp9 cells); for V0.5 of activation after toxin: control -24.8 ± 0.8 (Chirp7 cells, toxin value marked *), -22.8 ± 0.3 (Chirp9 cells), * = p<0.05 paired t-test; for slope of inactivation after toxin / V0.5 of inactivation after toxin: steady-state inactivation; for slope of inactivation after toxin: control 6.7 ± 0.1 (Chirp7 cells), 6.8 ± 0.2 (Chirp9 cells); for V0.5 of inactivation after toxin: control -59.9 ± 0.2 (Chirp7 cells), -59 ± 0.2 (Chirp9 cells)
Description: (§1) Recordings of macroscopic currents from sodium channels. Human voltage-gated sodium channels (hNav 1.1, hNav 1.2 and hNa 1.6) were stably expressed in HEK cells. Cells were maintained at 37 ◦C with 5% CO2 in a humidified atmosphere. The growth medium consisted of high-glucose Dulbecco’s Modified Eagle Medium (DMEM, Sigma Aldrich, Naucalpan de Juarez, Estado de Mexico, Mexico), supplemented with 10% Fetal Bovine Serum (ByProductos, Guadalajara, Jalisco, Mexico) and 500 μg/mL of the antibiotic G418 (Sigma Aldrich, Naucalpan de Juarez, Estado de Mexico, Mexico). The extracellular solution was composed of (in mM): 130 NaCl, 5 KCl, 2 CaCl2, 2 MgCl2, 10 HEPES, and 5 glucose, with the pH adjusted to 7.3 using NaOH. The intracellular solution contained (in mM): 105 CsF, 27 CsCl, 5 NaCl, 2 MgCl2, 10 EGTA, and 10 HEPES, with the pH also adjusted to 7.3 with CsOH. Solutions were delivered to the patched cell via an active perfusion system connected to a variable-speed syringe pump (Model A-99, Razel Scientific Instruments, Fairfax, VT, USA), with a perfusion rate of approximately 1 μL/s. Patch pipettes were made from borosilicate glass capillaries (Warner Instruments, Hamden, CT, USA) using a vertical puller (Model P-30, Sutter Instrument, Novato, CA, USA). The pipettes were filled with the internal solution and had resistance ranging from 1.5 and 3 MΩ. Sodium currents were elicited by 100 ms depolarization ranging from −110 to 30 mV in 10 mV steps, followed by a fully activating step at −10 mV for 50 ms. To better appreciate the effects of scorpion β-sodium toxins, channels were primed by means of a 5 ms depolarization at 50 mV, applied 50 ms before the depolarization steps, as previously described in Cestele et al. 1998 [17]. To ensure complete recovery from inactivation, cells were maintained at −120 mV for 280 ms before each step, while holding potential was set at −100 mV. Currents were acquired using a MultiClamp 700A amplifier and a DigiData 1440A digitizer (Molecular Devices, CA, USA).
(§2) For the activation curve, conductance (G) was calculated from current (I) elicited during depolarization steps by means of the equation G = I/(Vm − ENa), where I is the current elicited at membrane potential Vm, and ENa is the reversal potential of Na^+ ions, calculated experimentally for each cell. Conductance was normalized to its maximal level and plotted against the corresponding membrane potential. For the steady-state inactivation curve, currents elicited at −10 mV (after preconditioning depolarization from −110 to 30 mV) were plotted against the preconditioning potentials. Data from activation and from steady-state inactivation were fitted using a Boltzmann equation: y = A2 + (A1 − A2)/(1 + exp((x − x0)/dx)) where A1 is the initial value, A2 is the final value, x0 is the potential of half-activation (or half-inactivation) and dx is the slope. […]
(§3) Figure S1. Recordings of macroscopic currents from sodium channels. Sodium currents in B) were elicited by the stimulation protocol depicted in A): currents were elicited by 100 ms depolarization ranging from -110 to 30 mV in 10 mV steps, followed by a fully activating step at -10 mV for 50 ms.
(§4) A 5 ms depolarization at 50 mV was applied 50 ms before the depolarization steps to primed the channels. Peak currents obtained during the step depolarization from -110 to 30 mV (C and D, black circle in control and open circle after toxin application) were used to calculate the conductance and construct the activation curves. Currents recorded during the step at -10 mV (C and D, black square in control and open square for the toxin), were used to construct the inactivation curves. […]

[3] = tested on: hNav 1.2; assay: Patch-clamp macroscopic sodium currents, hNav1.2 in HEK cells; type: cell-based, human; conditions: 200 nM toxin; for I/Imax (residual peak current) / slope of activation after toxin / V0.5 of activation after toxin / slope of inactivation after toxin / V0.5 of inactivation after toxin: mean ± SE of 5 cells (3–5 cells); for slope of activation after toxin: control 5.4± 0.3 (Chirp7 cells), 7.6 ± 0.4 (Chirp9 cells); for slope of activation after toxin / slope of inactivation after toxin / V0.5 of inactivation after toxin: Chirp9 value marked * (p<0.05); for V0.5 of activation after toxin: control -21.1 ± 0.4 (Chirp7 cells), -26.5 ± 0.5 (Chirp9 cells); for slope of inactivation after toxin / V0.5 of inactivation after toxin: steady-state inactivation; for slope of inactivation after toxin: control 6 ± 0.2 (Chirp7 cells), 5.6 ± 0.2 (Chirp9 cells); for V0.5 of inactivation after toxin: control -56.1 ± 0.2 (Chirp7 cells), -55.5 ± 0.3 (Chirp9 cells)
Description: as §1, §2, §3, §4

Molecule	symptoms in affected animals [1]	time to death after injection [1]	lethality in murine models [1]	lethality in murine models ([1]; listed as FII.9)	Toxicity [1]	I/Imax (residual peak current) [2]	slope of activation after toxin [2]	V0.5 of activation after toxin [2] [mV]	slope of inactivation after toxin [2]	V0.5 of inactivation after toxin [2] [mV]	effect on inactivation [3]	I/Imax (residual peak current) [3]	slope of activation after toxin [3]	V0.5 of activation after toxin [3] [mV]	slope of inactivation after toxin [3]	V0.5 of inactivation after toxin [3] [mV]	lethality in murine models ([1]; listed as FII.7)
B1	hyperexcitability, tremors, piloerection, hypersalivation, transient paralysis, dyspnea, motor incoordination, severe respiratory distress, and, ultimately, death	approximately 20 min	pronounced lethality	particularly lethal effects	Lethal	0.94 ± 0.02	8.2 ± 0.2	-23.6 ± 0.2	7.3 ± 0.2	-60.1 ± 0.2	shifted inactivation to more negative potential	0.85 ± 0.07	10.8 ± 0.4	-26.8 ± 0.5	7.6 ± 0.4	-61.8 ± 0.4	
B2	hyperexcitability, tremors, piloerection, hypersalivation, transient paralysis, dyspnea, motor incoordination, severe respiratory distress, and, ultimately, death	approximately 20 min	pronounced lethality		Lethal	0.98±0.02	6.9 ± 0.5	-26.9 ± 0.6	6.4 ± 0.1	-60.9 ± 0.2		1 ± 0.02	5.9 ± 0.3	-22 ± 0.4	6.2 ± 0.2	-56.9 ± 0.2	particularly lethal effects
